Values of other authors as cited in publication PMC7339208.

What was measured:
[1] = target: IL-15 (Homo sapiens) (UniProt P40933)
[2] = target: IL-2 (Homo sapiens) (UniProt P60568)
Sequence of UniProt P60568 (P60568 21-153): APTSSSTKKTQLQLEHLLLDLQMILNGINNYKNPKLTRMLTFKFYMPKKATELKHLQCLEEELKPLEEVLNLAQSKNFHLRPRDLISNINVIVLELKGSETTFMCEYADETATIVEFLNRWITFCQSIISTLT

Sequence of UniProt P40933 (P40933 49-162): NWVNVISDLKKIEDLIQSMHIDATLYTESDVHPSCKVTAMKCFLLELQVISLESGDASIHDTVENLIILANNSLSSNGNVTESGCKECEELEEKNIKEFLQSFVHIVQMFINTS

For IL-15Rα (from UniProt Q13261), the Kd [1] is given as 0.1 nM.

For IL-2Rα (from UniProt P01589), the Kd [2] is given as 10 nM.
